Source: patent US20070105162A1, “Monovalent avidin and streptavidin compositions” (Massachusetts Institute of Technology, priority 2005, published 2007)

Tested on: biotinylated AP-CFP-TM on HeLa cells
Experiment: Staining of biotinylated AP-CFP-TM on HeLa with Alexa Fluor 568-conjugated avidins
Type: cell-based
Settings: avidin, Alexa Fluor 568 conjugate
Experimental: Enzymatic biotinylation and imaging of HeLa transfectants are performed as previously described (Howarth, M. et al., Proc. Natl. Acad. Sci. USA 102: 7583-7588, 2005), except instead of 10 μM biotin and 1 mM ATP, we add 10 μM biotin-AMP (synthesized according to Coleman and Huang; Coleman, T. M. and Huang, F. Chem. Biol. 9: 1227-1236, 2002) to give equivalent biotinylation but minimizing the risk of purinoreceptor activation by ATP (Rathbone, M. P. et al., Prog. Neurobiol. 59: 663-690, 1999). […] Biotinylation of neurons is performed at day in vitro (DIV) 8 in Hanks' Balanced Salt Solution (HBSS) (Invitrogen) with 0.2 μM biotin ligase and 10 μM biotin-AMP for 5 min at 37° C. […] Neurons are washed with NeuroBasal media (Invitrogen) supplemented with B-27 (Invitrogen), 50 U/mL penicillin, 50 μg/mL streptomycin, and 0.2 mM L-glutamine and chased in the same medium for 0 or 2 hr at 37° C. Cells are then fixed in −20° C. methanol. There was no signal from wild-type avidin labeling if neurons were instead transfected with Ala-neuroligin-1 containing a point mutation in AP, confirming the specificity of labeling. […]
Images of HeLa cells are collected on a Zeiss Axiovert 200M inverted epifluorescence microscope using a 40× oil-immersion lens and a MicroMAX CCD camera (Roper Scientific; Tucson, Ariz.). CFP (420DF20 excitation, 450DRLP dichroic, 475DF40 emission) and Alexa568 (560DF20 excitation, 585DRLP dichroic, 605DF30 emission) images are collected and analyzed using OpenLab software (Improvision; Lexington, Mass.). Fluorescence images are background-corrected. […] Images are scaled to 16 bits and analyzed in Northern Eclipse (Empix Imaging; Ontario, Canada) with user-written software. […] Results are then calculated in terms of clusters per micrometer of dendrite. For assessment of pre-synaptic terminals, clusters are determined as before and average grey levels of clusters are compared between transfected dendrites and untransfected dendrites within the same field of view. […] “n” represents the number of transfected neurons for which clusters were measured. […]

Substance	Alexa staining of biotinylated AP-CFP-TM
D4: Streptavidin tetramer with 4 dead subunits (D: N23A, S27D, S45A, SEQ ID NO:3) [Tetramer D4]	no detectable staining
A1D3: Monovalent streptavidin tetramer: one His6-tagged wild-type (A) subunit and three dead (D) subunits [Tetramer A1D3]	detected equally well
